Test results published in patent publication US20240270821A1, “GIP/GLP1/GCG TRI-RECEPTOR AGONISTS AND USES THEREOF” (priority 2023, published 2024).

T1: human GIP receptor (human) (UniProt P48546)
T1 sequence (looked up): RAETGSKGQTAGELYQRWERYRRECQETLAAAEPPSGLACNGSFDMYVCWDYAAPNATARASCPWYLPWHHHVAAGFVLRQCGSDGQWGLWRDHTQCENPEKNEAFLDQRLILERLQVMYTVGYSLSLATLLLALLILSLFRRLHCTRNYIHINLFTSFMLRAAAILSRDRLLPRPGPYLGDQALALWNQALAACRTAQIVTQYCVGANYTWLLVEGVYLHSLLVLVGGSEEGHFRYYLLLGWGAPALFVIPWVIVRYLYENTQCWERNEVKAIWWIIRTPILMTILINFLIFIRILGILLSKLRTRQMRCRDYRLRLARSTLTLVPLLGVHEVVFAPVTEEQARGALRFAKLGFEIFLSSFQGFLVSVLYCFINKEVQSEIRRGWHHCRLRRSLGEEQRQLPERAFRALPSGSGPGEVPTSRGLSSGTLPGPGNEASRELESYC


Legend:
Experiment in all cases: cell-based or functional assay
[1] = target: hGLP-1R (Homo sapiens, UniProt P43220)
[2] = target: T1, human GIP receptor (human)
[3] = target: human glucagon receptor (human) (UniProt P47871)
human glucagon receptor (human), sequence (P47871 26-477): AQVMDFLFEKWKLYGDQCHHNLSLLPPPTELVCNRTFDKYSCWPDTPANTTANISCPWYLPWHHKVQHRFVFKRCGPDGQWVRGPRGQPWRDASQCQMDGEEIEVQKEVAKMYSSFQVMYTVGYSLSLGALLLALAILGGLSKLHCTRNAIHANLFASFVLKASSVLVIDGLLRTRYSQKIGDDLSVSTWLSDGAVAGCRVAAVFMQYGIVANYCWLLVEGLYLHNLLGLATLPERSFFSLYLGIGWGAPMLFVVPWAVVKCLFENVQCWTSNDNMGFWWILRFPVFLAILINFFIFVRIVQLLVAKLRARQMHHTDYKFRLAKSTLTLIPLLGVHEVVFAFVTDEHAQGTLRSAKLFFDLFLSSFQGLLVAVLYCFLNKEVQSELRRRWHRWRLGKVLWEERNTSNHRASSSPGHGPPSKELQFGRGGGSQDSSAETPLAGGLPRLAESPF

hGLP-1R, sequence (P43220 24-463): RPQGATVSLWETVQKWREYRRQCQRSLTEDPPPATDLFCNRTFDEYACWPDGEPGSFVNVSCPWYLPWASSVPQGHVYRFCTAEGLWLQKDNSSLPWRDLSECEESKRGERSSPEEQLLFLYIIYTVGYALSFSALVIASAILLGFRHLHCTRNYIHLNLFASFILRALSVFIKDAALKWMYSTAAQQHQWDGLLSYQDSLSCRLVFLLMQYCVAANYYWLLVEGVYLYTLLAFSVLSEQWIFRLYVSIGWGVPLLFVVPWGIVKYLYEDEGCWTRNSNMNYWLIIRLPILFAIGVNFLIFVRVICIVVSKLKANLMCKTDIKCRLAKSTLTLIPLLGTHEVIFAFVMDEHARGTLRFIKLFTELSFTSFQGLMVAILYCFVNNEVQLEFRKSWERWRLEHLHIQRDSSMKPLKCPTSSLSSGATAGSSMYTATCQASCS

Binder	Relative cAMP EC50 [1] [nM]	Relative cAMP EC50 [2] [nM]	Relative cAMP EC50 [3] [nM]	cAMP Rel EC50 (in the presence of 1% HSA) [1] [nM]	cAMP Rel EC50 (in the presence of 1% HSA) [2] [nM]	cAMP Rel EC50 (in the presence of 1% HSA) [3] [nM]
YXQGTFTSDXXQXLDXKAQXQFIQXLIAXGPSSGAPPPSGGGE (not fully specified; Lys acylated γGlu-C18 diacid; non-natural residues; C-amide; synthetic construct; SITE 2: note = 2-Aminoisobutyric Acid; SITE 10: note = 3-(4-Pyridyl)-L-alanine; SITE 11: note = alpha-methyl-L-serine; SITE 13: note = alpha-methyl-leucine; SITE 16: note = L-ornithine; SITE 17: note = Lysine is chemically modified through conjugation of the epsilon-amino group) [Example 1132]	0.681	0.0335	2.11			
YXQGTFTSDXXQXLDXKAQXQFIQXLIEXGPSSGAPPPSGGGE (not fully specified; N-methyl-Tyr, non-natural residues, acylated Lys (γGlu-C18 diacid), C-terminal amide; synthetic construct; SITE 1: note = N-methyl-tyrosine; SITE 2: note = 2-Aminoisobutyric Acid; SITE 10: note = 3-(4-Pyridyl)-L-alanine; SITE 11: note = alpha-methyl-L-serine; SITE 13: note = alpha-methyl-leucine; SITE 16: note = L-ornithine; SITE 17: note = Lysine is chemically modified …) [Example 1134]	0.957	0.0391	2.57			
YXQGTFTSDXXIXLDXKAQXQFIQXLIEXGPSSGAPPPSGGGE (not fully specified; N-methyl Tyr, non-natural residues, acylation, C-terminal amide; synthetic construct; SITE 1: note = N-methyl-tyrosine; SITE 2: note = 2-Aminoisobutyric Acid; SITE 10: note = 3-(4-Pyridyl)-L-alanine; SITE 11: note = alpha-methyl-L-serine; SITE 13: note = alpha-methyl-leucine; SITE 16: note = L-ornithine; SITE 17: note = Lysine is chemically modified through conju) [Example 1135]	0.746	0.0126	1.76			
YXQGTFTSDXXIXLDXKAQXQFIQXLIEXGPSSGAPPPSGGGE (not fully specified; non-natural residues (Aib, 4Pal, αMeS, Orn, Me4Pal); lipidated Lys; C-amide; synthetic construct; SITE 2: note = 2-Aminoisobutyric Acid; SITE 10: note = 3-(4-Pyridyl)-L-alanine; SITE 11: note = alpha-methyl-L-serine; SITE 13: note = alpha-methyl-leucine; SITE 16: note = L-ornithine; SITE 17: note = Lysine is chemically modified through conjugation of the epsilon-amino group) [Example 1136]	0.453	0.0131	1.26			
YXQGTFTSDXXQXLDXKAQXQFIQXLLEXGPSSGAPPPSGGGE (not fully specified; non-natural residues, acylated Lys, C-terminal amide; synthetic construct; SITE 2: note = 2-Aminoisobutyric Acid; SITE 10: note = 3-(4-Pyridyl)-L-alanine; SITE 11: note = alpha-methyl-L-serine; SITE 13: note = alpha-methyl-leucine; SITE 16: note = L-ornithine; SITE 17: note = Lysine is chemically modified through conjugation of the epsilon-amino group) [Example 1138]	1.93	0.0491	1.01			
YXQGTFTSDXXQXLDXKAQXQFIQXLLEXGPSSGAPPPSGGGE (not fully specified; non-natural residues (Aib, 4Pal, αMeS, Iva, αMeY); lipidated K; amide; synthetic construct; SITE 2: note = 2-Aminoisobutyric Acid; SITE 10: note = 3-(4-Pyridyl)-L-alanine; SITE 11: note = alpha-methyl-L-serine; SITE 13: note = alpha-methyl-leucine; SITE 16: note = L-ornithine; SITE 17: note = Lysine is chemically modified through conjugation of the epsilon-amino group) [Example 1139]	1.85	0.0431	5.29			
YXQGTXTSDXXIXLDXKAQXEFIEXLIEGGPSSGAPPPTGE (Aib, αMeF(2F), 4Pal, αMeS, αMeL, Orn, Me4Pal, αMeY, acyl, amide; synthetic construct; SITE 2: note = 2-Aminoisobutyric Acid; SITE 6: note = alpha-methyl-2-fluoro-L-phenylalanine; SITE 10: note = 3-(4-Pyridyl)-L-alanine; SITE 11: note = alpha-methyl-L-serine; SITE 13: note = alpha-methyl-leucine; SITE 16: note = L-ornithine; SITE 17: note = Lysine is chemically mo) [Example 1142]	0.329	0.00706	1.34			
YXQGTXTSDXXIXLDXKAQXEFIEXLIEGGPSSGAPPPGGE (non-natural residues; K acylated AEEA-γGlu-C18 diacid; C-amide; synthetic construct; SITE 2: note = 2-Aminoisobutyric Acid; SITE 6: note = alpha-methyl-2-fluoro-L-phenylalanine; SITE 10: note = 3-(4-Pyridyl)-L-alanine; SITE 11: note = alpha-methyl-L-serine; SITE 13: note = alpha-methyl-leucine; SITE 16: note = L-ornithine; SITE 17: note = Lysine is chemically mo) [Example 1144]	0.282	0.00649	1.32			
YXQGTXTSDXXIXLDXKAQXEFIEXLIEGGPSSGAPPPESE (non-natural residues, acylated Lys, C-terminal amide; synthetic construct; SITE 2: note = 2-Aminoisobutyric Acid; SITE 6: note = alpha-methyl-2-fluoro-L-phenylalanine; SITE 10: note = 3-(4-Pyridyl)-L-alanine; SITE 11: note = alpha-methyl-L-serine; SITE 13: note = alpha-methyl-leucine; SITE 16: note = L-ornithine; SITE 17: note = Lysine is chemically mo) [Example 1146]	0.281	0.00628	1.22			
YXQGTXTSDXXIXLDXKAQXEFIEXLIEGGPSSGAPPPEGE (non-natural residues, AEEA-γGlu-diacid acylated Lys, C-terminal amide; synthetic construct; SITE 2: note = 2-Aminoisobutyric Acid; SITE 6: note = alpha-methyl-2-fluoro-L-phenylalanine; SITE 10: note = 3-(4-Pyridyl)-L-alanine; SITE 11: note = alpha-methyl-L-serine; SITE 13: note = alpha-methyl-leucine; SITE 16: note = L-ornithine; SITE 17: note = Lysine is chemically mo) [Example 1148]	0.299	0.00801	1.6			
YXQGTFTSDFSXXLDKKAQXAFIEYLLEXGHSSGAPPPSGE (non-natural residues; lipidated Lys AEEA-γGlu-C18 diacid; C-term amide; synthetic construct; SITE 2: note = 2-Aminoisobutyric Acid; SITE 12: note = L-ornithine; SITE 13: note = alpha-methyl-leucine; SITE 17: note = Lysine is chemically modified through conjugation of the epsilon-amino group of the Lysine side chain with (2-[2-(2-Amino-ethoxy)-ethoxy]-acetyl)-(gamma-Glu)) [Example 247]				291	12.9	443
YXQGTFTSDFSXXLDKKAQXAFIEWLLEXGHSSGAPPPSGE (Aib, Orn, αMeL; K acylated with (AEEA)2-γGlu-C18 diacid; C-amide; synthetic construct; SITE 2: note = 2-Aminoisobutyric Acid; SITE 12: note = L-ornithine; SITE 13: note = alpha-methyl-leucine; SITE 17: note = Lysine is chemically modified through conjugation of the epsilon-amino group of the Lysine side chain with (2-[2-(2-Amino-ethoxy)-ethoxy]-acetyl)2-(gamma-Glu)) [Example 266]				583	17.3	923
